# Laboratory results published in publication PMC6598095 (Journal of Experimental Botany, 2019).
# T1: AtGL3 (F177I) (Arabidopsis thaliana, UniProt Q9FN69 1-637, F177I)
# T1 sequence: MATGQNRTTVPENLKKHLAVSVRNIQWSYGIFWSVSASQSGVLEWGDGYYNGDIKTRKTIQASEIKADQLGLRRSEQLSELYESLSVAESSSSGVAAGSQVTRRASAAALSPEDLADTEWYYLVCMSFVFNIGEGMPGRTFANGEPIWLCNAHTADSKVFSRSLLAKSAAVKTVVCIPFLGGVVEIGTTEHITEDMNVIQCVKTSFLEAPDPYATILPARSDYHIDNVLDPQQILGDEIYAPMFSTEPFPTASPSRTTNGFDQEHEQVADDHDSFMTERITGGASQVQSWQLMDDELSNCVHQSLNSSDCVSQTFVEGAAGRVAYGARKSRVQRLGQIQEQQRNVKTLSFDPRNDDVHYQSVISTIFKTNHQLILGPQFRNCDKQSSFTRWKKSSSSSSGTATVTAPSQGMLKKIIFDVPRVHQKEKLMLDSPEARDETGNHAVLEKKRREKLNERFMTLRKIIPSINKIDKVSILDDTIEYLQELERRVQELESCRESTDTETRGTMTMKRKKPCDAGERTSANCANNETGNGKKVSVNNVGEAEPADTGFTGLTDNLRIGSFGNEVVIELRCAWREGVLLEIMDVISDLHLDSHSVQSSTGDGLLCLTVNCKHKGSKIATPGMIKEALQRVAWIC
# B1: AtGL1 (natural protein)
# chain: MRIRRRDEKENQEYKKGLWTVEEDNILMDYVLNHGTGQWNRIVRKTGLKRCGKSCRLRWMNYLSPNVNKGNFTEQEEDLIIRLHKLLGNRWSLIAKRVPGRTDNQVKNYWNTHLSKKLVGDYSSAVKTTGEDDDSPPSLFITAATPSSCHHQQENIYENIAKSFNGVVSASYEDKPKQELAQKDVLMATTNDPSHYYGNNALWVHDDDFELSSLVMMNFASGDVEYCL
# B2: AtWER (natural protein)
# chain: MRKKVSSSGDEGNNEYKKGLWTVEEDKILMDYVKAHGKGHWNRIAKKTGLKRCGKSCRLRWMNYLSPNVKRGNFTEQEEDLIIRLHKLLGNRWSLIAKRVPGRTDNQVKNYWNTHLSKKLGIKDQKTKQSNGDIVYQINLPNPTETSEETKISNIVDNNNILGDEIQEDHQGSNYLSSLWVHEDEFELSTLTNMMDFIDGHCF
# B3: AtTT2 (natural protein)
# chain: MGKRATTSVRREELNRGAWTDHEDKILRDYITTHGEGKWSTLPNQAGLKRCGKSCRLRWKNYLRPGIKRGNISSDEEELIIRLHNLLGNRWSLIAGRLPGRTDNEIKNHWNSNLRKRLPKTQTKQPKRIKHSTNNENNVCVIRTKAIRCSKTLLFSDLSLQKKSSTSPLPLKEQEMDQGGSSLMGDLEFDFDRIHSEFHFPDLMDFDGLDCGNVTSLVSSNEILGELVPAQGNLDLNRPFTSCHHRGDDEDWLRDFTC
# B4: AtMYB61 (natural protein)
# chain: not shown
# B5: AtPAP1 (natural protein)
# chain: MEGSSKGLRKGAWTTEEDSLLRQCINKYGEGKWHQVPVRAGLNRCRKSCRLRWLNYLKPSIKRGKLSSDEVDLLLRLHRLLGNRWSLIAGRLPGRTANDVKNYWNTHLSKKHEPCCKIKMKKRDITPIPTTPALKNNVYKPRPRSFTVNNDCNHLNAPPKVDVNPPCLGLNINNVCDNSIIYNKDKKKDQLVNNLIDGDNMWLEKFLEESQEVDILVPEATTTEKGDTLAFDVDQLWSLFDGETVKFD
# B6: AtPAP2 (natural protein)
# chain: MEGSSKGLRKGAWTAEEDSLLRLCIDKYGEGKWHQVPLRAGLNRCRKSCRLRWLNYLKPSIKRGRLSNDEVDLLLRLHKLLGNRWSLIAGRLPGRTANDVKNYWNTHLSKKHESSCCKSKMKKKNIISPPTTPVQKIGVFKPRPRSFSVNNGCSHLNGLPEVDLIPSCLGLKKNNVCENSITCNKDDEKDDFVNNLMNGDNMWLENLLGENQEADAIVPEATTAEHGATLAFDVEQLWSLFDGETVELD
# Target: T1, AtGL3 (F177I)
# Assay: pull-down
row,Binder,percent reduction of binding against wild-type AtGL3 [%]
1,B1,30
2,B2,30
3,B3,30
4,B4,30
5,B5,30
6,B6,30
